From paper PMC5740175

Tests used:
[1] = system: IRP1 (iron regulatory protein 1); assay: EMSA; conditions: 25 mM Tris/HCl pH 7.4, 40 mM KCl, 1% Triton X-100, protease inhibitor (EDTA-free), 200 ng IRP1, 100 ng labeled probe, 15 min room temperature, then 50 ng …
[2] = system: IRP1 (iron regulatory protein 1); assay: competition EMSA; conditions: 25 mM Tris/HCl pH 7.4, 40 mM KCl, 1% Triton X-100, protease inhibitor (EDTA-free); 200 ng IRP1, 100 ng labeled probe; 15 min room temperature, then 50 ng …

Substance | binding signal (% of WT bound) ([1]; direct, minimal binding, reduction of almost 95%, mean of 4, heparin) | binding signal (% of WT bound) [1] | Kd [2] [nM] | binding signal (% of WT bound) ([1]; direct, 75% decrease, mean of 4, heparin)
FTL 5' IRE +39ΔC | 5 | – | – | –
FTL 5' IRE WT | – | 100 | 0.5 | –
FTL 5' IRE Ghent +49A>G | – | – | 2.7 | 25
